Experiments:
[1] = biological target: AfTrax (Archaeoglobus fulgidus Trax homologue, AF2260), wild type (Archaeoglobus fulgidus); assay: SEC
[2] = biological target: AfTrax (Archaeoglobus fulgidus Trax homologue, AF2260), wild type (Archaeoglobus fulgidus); assay: crystal structure
[3] = biological target: AfTrax D114A catalytic mutant (Archaeoglobus fulgidus); assay: crystal structure

stoichiometry N [1]	stoichiometry N [2]	stoichiometry N [3]	Substance
8	8		AfTrax (Archaeoglobus fulgidus Trax homologue, AF2260), wild type (natural protein)
		8	AfTrax D114A catalytic mutant (natural protein)
